Consider seven molecules from US20210188972A1 (A AND G PHARMACEUTICAL, published 2021).

Numbering of substitutions follows the chain as printed.

T1: Human PTGFRN-ECD (extracellular domain; amino-acid 26 to amino-acid Y at 832), His-tag protein (human, UniProt Q9P2B2 26-832)
T1 construct: range 26-832; Expressed in Hek-293 cells, purified on a nickel column; also called recombinant PTGFRN; not shown: His-tag
T1 sequence (looked up): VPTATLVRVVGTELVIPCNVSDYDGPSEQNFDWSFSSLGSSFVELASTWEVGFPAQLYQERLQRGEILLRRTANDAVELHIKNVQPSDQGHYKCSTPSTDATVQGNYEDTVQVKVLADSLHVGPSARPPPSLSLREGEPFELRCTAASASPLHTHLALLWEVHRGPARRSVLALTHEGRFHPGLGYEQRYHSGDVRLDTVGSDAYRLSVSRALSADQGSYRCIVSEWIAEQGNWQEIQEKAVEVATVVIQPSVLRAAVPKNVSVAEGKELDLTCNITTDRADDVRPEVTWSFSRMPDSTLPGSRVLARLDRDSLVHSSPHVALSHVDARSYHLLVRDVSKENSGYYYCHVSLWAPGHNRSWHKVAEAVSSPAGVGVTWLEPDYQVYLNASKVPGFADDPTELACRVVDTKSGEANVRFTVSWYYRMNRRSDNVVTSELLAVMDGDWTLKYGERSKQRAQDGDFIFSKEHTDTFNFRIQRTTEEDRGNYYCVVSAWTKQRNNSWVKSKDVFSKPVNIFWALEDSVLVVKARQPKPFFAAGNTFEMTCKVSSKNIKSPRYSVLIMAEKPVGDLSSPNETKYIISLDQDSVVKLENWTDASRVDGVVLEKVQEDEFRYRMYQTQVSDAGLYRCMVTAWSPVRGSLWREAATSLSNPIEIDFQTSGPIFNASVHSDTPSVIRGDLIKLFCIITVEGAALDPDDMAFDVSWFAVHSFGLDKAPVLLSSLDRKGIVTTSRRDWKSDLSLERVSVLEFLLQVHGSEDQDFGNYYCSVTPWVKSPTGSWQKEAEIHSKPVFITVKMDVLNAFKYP

B1: 1E2 (antibody, V domains shown)
VH: DVQLQESGPGLVKPSQSLSLTCSVTDYSITSGYYWNWIRQFPGNKLEWMGYISYDGSNNYNPSLKNRLSITRDTSKNQFFLKLNSVTPEDTATYYCARGWDYCFDYWGQGATLTVSS
VL: DIQMTQTTSSLSASLGDRVTISCSASQGISNYLNWYQQKPDGTVKLLIYYTSGLHSGVPSRFSGSGSGTDYSLTISNLEPEDIATYYCQQYSQLPWTFGGGTKLEIK
notes: Mouse hybridoma mAb
B2: 3E10 (antibody, V domains shown)
VH: EVHLVESGGDLVKPGGSLKLSCAASGFTFSSYGMSWVRQTPDKRLEWVASISSGGSHTYYPDRVKGRFTISRDNAKNTLYLQMSSLKSEDTAMYYCARHPSYYGSSLYCFDYWGQGTTLTVSS
VL: B1 VL with S24R, G28D, G53R, Y71F, P80Q, I83V, Y87F, Y91G, Q93T
B3: 6F6 (antibody, V domains shown)
VH: QVQLQQSGAELVKPGASVKVSCKASGYTFTTYWMHWVKQRPGQGLEWIGRIHPSDSDTNYNQKFKGKATLTLDKSSSTAYMQLSSLTSEDSAVYYCAMSLYYTMDYWGQGTSVTVSS
VL: DIQMTQSPSSLSASLGGKVTITCKASQDIKKYIAWYQHKPGKGPRLLIHYTSTLQPGIPSRFSGSGSGRDYSFSISNLEPEDIATYYCLQYDNLLYTFGGGTKLEIK
notes: Mouse hybridoma mAb
B4: 2B12 (antibody, V domains shown)
VH: QVQLQQPGAELVKPGASVKMSCKASGYTFTSYWITWVKQGPGQGLEWIGDIYPGSGNTNYNEKFKSKATLTVDTSSSTAYMQLSSLTSEDSAVYYCARFFILTSYYFDYWGQGTTLTVSS
VL: GIVMTQSQKFMSTTVGDRVSITCKASQNVGTAVAWFQQKPGQSPKLLIYLASNRYTGVPDRFTGSGSGTDFTLTISNMQSEDLADYFCQQYSNYPLTFGAGTKLELK
notes: Mouse hybridoma mAb
B5: 10D9 (antibody, V domains shown)
VH: DVQLQESGPGLVKPSQSLSLTCSVTGCSITSGYDWNWIRQFPGNKLEWMGYINYDGNSNYIPSLKNRVSITRDTSKNQFFLKLNSVTTEDTATYYCARSDGYYWYFDVWGTGTTVTVSS
VL: DIKMTQSPSSMYASLGERVTITCKASQDIKSYLSWYQQKPWKSPKTLIYYATSLADGVPSRFSASGSGQDYSLTISSLESDDTATYYCLQHAERPLTFGAGTKLELK
notes: Mouse hybridoma mAb
B6: 33B7 (antibody, V domains shown)
VH: DVQLQESGPGLVKPSQSLSLTCSVTGCSITSGYYWNWIRQFPGNKLEWMGYISHDGNNNYSPSLKNRISITRDTSKNQFFLKLNSVTTEDTATYYCARGFYYYGYFGYWGQGTTLTVSS
VL: DIVMSQSPSSLAVSVGEKVTMSCKSSQSLLYSTNQKNYLAWYQQKPGQSPKPLIYWASTRESGVPDRFTGSGSGTDFTLTISSVKAEDLAVYYCQQYYSYRTFGGGTKLEIKR
notes: Murine hybridoma monoclonal IgG (ATCC PTA-124281); also called AG02; AGO2
B7: 9A9 (antibody, V domains shown)
VH: QVQLQQSGPELVKPGASVKLSCKASGYTFTTYDINWVKQRPGQGLEWIGWLYPRDGNTNYNEKFKGKASLTVDTSSSTAYMELHSLTSEDSAVYFCARDYYGSTYGYFDYWGQGTTLTVSS
VL: DIQMTQSPASLSASVGGTVTITCRASEKIYSYLAWYQQKQGKSPQLLVYDANTLAQGVPSRFSGSGSGTQFSLKINSLQPEDFGSYYCQHHYVTPLTFGAGTKLALK
notes: Mouse hybridoma mAb

In the first assay the target is T1, Human PTGFRN-ECD (extracellular domain; …). Description: Octet Red96 pairing (binning matrix) on PTGFRN-ECD; capture Ab (1st loading Ab): 9D8.
B1 had an Octet pairing response of 0.184.
The same measure, in the same setting: next, B2: 0.199; B3: 0.165; B4: 0.0857.
In turn, B5 came in with an Octet pairing response of 0.186.

The target is the same in the next assay. The assay can be described thus: Octet Red96 pairing (binning matrix) on PTGFRN-ECD; capture Ab (1st loading Ab): 6F6. For orientation: BLI is a label-free optical method that tracks binding on a fibre tip over time.
The molecule B2 gave an Octet pairing response of 0.0759.
In turn, B4 returned an Octet pairing response of 0.13.
Take B5: the Octet pairing response was 0.215.

For the next assay the target is unchanged. Description: BLI, Octet Red96, mAb on AMC sensor, PTGFRN-ECD 100 nM as analyte.
Procedure: Antibody scouting/affinity based antibody ranking was performed to determine on/off rates and KD ranking of selected anti-PTGFRN mAbs using AMC sensor on forteBio Octet Red96 (FortéBio, Menlo Park, Calif.). PTGFRN-ECD, 100 nM, was used as the analyte.
On to B1, for which the Kd (as a rule, the constant that tells how readily two partners part at equilibrium) is below 1 pM; the Response amounted to 0.41; the koff (as a rule, the first-order rate constant of dissociation) is below 1e-07 s⁻¹; the kon (in general, a measure of how fast the partners come together) stood at 63800 M⁻¹ s⁻¹.
For B2 the same measures were below 1 pM, 0.472, below 1e-07 s⁻¹ and 120000 M⁻¹ s⁻¹.
The matching figures for B6: 3090 pM, 0.245, 0.000602 s⁻¹ and 195000 M⁻¹ s⁻¹.
On to B7, for which the Kd is below 1 pM, the Response is 0.319, the koff was below 1e-07 s⁻¹ and the kon was determined as 151000 M⁻¹ s⁻¹.
The matching figures for B3: below 1 pM, 0.335, below 1e-07 s⁻¹ and 69100 M⁻¹ s⁻¹.
The matching figures for B4: below 1 pM, 0.272, below 1e-07 s⁻¹ and 48500 M⁻¹ s⁻¹.
For B5 the same measures were below 1 pM, 0.342, below 1e-07 s⁻¹ and 85600 M⁻¹ s⁻¹.

The target is the same in the next assay. Description: Octet Red96 pairing (binning matrix) on PTGFRN-ECD; capture Ab (1st loading Ab): 9G8.
Molecule B1 had an Octet pairing response of 0.215.
In the case of B2, the Octet pairing response turned out to be 0.124.
On the same count and under the same terms, to B3 belongs 0.146; to B4, 0.0926.
On the same count and under the same terms, to B5 belongs 0.142.

For a further assay the target is unchanged. Description: Octet Red96 pairing (binning matrix) on PTGFRN-ECD; capture Ab (1st loading Ab): 10E6.
With B1, the Octet pairing response was found to be 0.306.
Same read-out and setting: to B2 belongs 0.305.
On the same count and under the same terms, next, B3: 0.255; B4: 0.157; B5: 0.329.

A further assay has the same target. Description: Octet Red96 pairing (binning matrix) on PTGFRN-ECD; capture Ab (1st loading Ab): 9A9.
B1: the Octet pairing response is 0.27.
B2 had an Octet pairing response of 0.224.
Still for that read-out and setting: to B3 belongs 0.222; to B4, 0.0744.
On the same count and under the same terms, next, B5: 0.226.

For a further assay the target is unchanged. Description: Octet Red96 pairing (binning matrix) on PTGFRN-ECD; capture Ab (1st loading Ab): 1E2.
B3: the Octet pairing response is 0.232.
B4 returned an Octet pairing response of 0.27.
The molecule B5 displayed an Octet pairing response of 0.269.

The target is the same in a further assay. Description: Octet Red96 pairing (binning matrix) on PTGFRN-ECD; capture Ab (1st loading Ab): 7B4.
In turn, B1 yielded an Octet pairing response of 0.157.
For B2, the Octet pairing response was 0.12.
Still for that read-out and setting: next, B7: 0.162; B3: 0.103; B4: 0.0818.
The same measure, in the same setting: to B5 belongs 0.1.

Another assay shares this target. The assay can be described thus: Octet Red96 pairing (binning matrix) on PTGFRN-ECD; capture Ab (1st loading Ab): 4F4.
Regarding B2, the Octet pairing response turned out to be 0.112.
Still for that read-out and setting: to B6 belongs 0.125.
Same read-out and setting: next, B3: 0.131.

The next assay shares this target. The assay can be described thus: Octet Red96 pairing (binning matrix) on PTGFRN-ECD; capture Ab (1st loading Ab): 10D9.
Regarding B1, the Octet pairing response was 0.24.
Same read-out and setting: to B2 belongs 0.219.
On to B3, for which the Octet pairing response was found to be 0.191.
Still for that read-out and setting: to B4 belongs 0.111.

For the next assay the target is unchanged. The assay can be described thus: Octet Red96 pairing (binning matrix) on PTGFRN-ECD; capture Ab (1st loading Ab): 2B12.
B1 gave an Octet pairing response of 0.23.
On the same count and under the same terms, to B2 belongs 0.251; to B3, 0.124; to B5, 0.18.

Another assay shares this target. Description: Octet Red96 pairing (binning matrix) on PTGFRN-ECD; capture Ab (1st loading Ab): 33B7.
Molecule B1 displayed an Octet pairing response of 0.185.
The same measure, in the same setting: to B2 belongs 0.252.
B3 came in with an Octet pairing response of 0.126.
On to B4, for which the Octet pairing response amounted to 0.132.
The molecule B5 came in with an Octet pairing response of 0.236.
